The series concerns the target T1, rSaWRKY1 (Solanum arcanum Peralta (accession not …, UniProt A0A1P8NTG4 1-410)).
T1 sequence: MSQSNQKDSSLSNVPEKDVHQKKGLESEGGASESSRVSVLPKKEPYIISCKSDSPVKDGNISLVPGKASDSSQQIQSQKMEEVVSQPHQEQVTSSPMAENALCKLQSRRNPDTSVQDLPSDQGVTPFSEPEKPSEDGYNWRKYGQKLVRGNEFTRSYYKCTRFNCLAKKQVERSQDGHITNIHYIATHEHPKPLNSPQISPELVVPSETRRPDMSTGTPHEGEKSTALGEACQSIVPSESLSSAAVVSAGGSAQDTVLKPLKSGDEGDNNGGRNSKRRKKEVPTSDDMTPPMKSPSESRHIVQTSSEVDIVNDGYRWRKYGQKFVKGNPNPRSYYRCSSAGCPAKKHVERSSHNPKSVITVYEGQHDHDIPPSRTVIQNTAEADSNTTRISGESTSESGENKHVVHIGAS
The series can be described thus: EMSA; 10 ug protein; 10x binding buffer: 0.10 mg/mL BSA, 1 mM DTT, 10 mM EDTA, 50% glycerol, 1 M KCl, 100 mM Tris-HCl pH 7.5 (stock as printed; working dilution not stated); 25 C, 30 min; 2% agarose gel, GelRed. To be noted: protein: recombinant; recombinant protein 62.6 kDa; label: none (GelRed stain); blunt. (A gel shift assay detects complexes by their altered migration in electrophoresis.)

B1: 4xW-box (dsDNA)
DNA 1: AAAAAATTGACCAAATTGACTCCAATTGACCAAATTGACCAAACACCACCTCCCACCTATAAAAAA
DNA 2: TTTTTTATAGGTGGGAGGTGGTGTTTGGTCAATTTGGTCAATTGGAGTCAATTTGGTCAATTTTTT
As to B1, the binding result is reported as “binds”.

B2: mutated 4xW-box (4xmWbox) (dsDNA)
DNA 1: AAAAAATTTACCAAATTTACTCCAATTTACCAAATTTACCAAACACCACCTCCCACCTATAAAAAA
DNA 2: TTTTTTATAGGTGGGAGGTGGTGTTTGGTAAATTTGGTAAATTGGAGTAAATTTGGTAAATTTTTT
As to B2, the binding result is reported as “no binding”.

Source of the values: publication PMC6041441, “WRKY1 acts as a key component improving resistance against Alternaria solani in wild tomato, Solanum arcanum Peralta”.
